Reference: publication PMC3411786

How the values were obtained:
[1] = target: Asp85 (UniProt position 98, WARYADWLFTA); assay: UV-vis; details: pH adjusted with 0.1 M HCl or NaOH, Retinal-reconstituted chromoprotein in purple membrane, ground state. Light/dark adaptation state during the titration is not stated.
[2] = target: Asp85 (UniProt position 98, WARYADWLFTT); assay: UV-vis; details: pH adjusted with 0.1 M HCl or NaOH, Retinal-reconstituted chromoprotein in purple membrane, ground state. Light/dark adaptation state during the titration is not stated.
[3] = 150 mM KCl, none stated (Methods say non-buffered)
[4] = Deionised water with no added salt, apart from the HCl/NaOH titrant, none (non-buffered)

| Substance | pKa [1, 3] | pKa [1, 4] | pKa [2, 3] | pKa [2, 4] |
| --- | --- | --- | --- | --- |
| Bacteriorhodopsin T90A, bacterioopsin reconstituted with 13-ethyl retinal (T90A-13E-RET) (Halobacterium salinarum; T90A) | 6.4 | 6.7 |  |  |
| Bacteriorhodopsin T90A, bacterioopsin reconstituted with all-trans retinal (T90A-AT) (Halobacterium salinarum; T90A) | 5.8 | 6.1 |  |  |
| Bacteriorhodopsin, wild-type bacterioopsin reconstituted with 13-ethyl retinal (WT-13E-RET) (Halobacterium salinarum) |  |  | 4.5 | 4.7 |
| Bacteriorhodopsin, wild-type bacterioopsin reconstituted with all-trans retinal (WT-AT) (Halobacterium salinarum) |  |  | 3.9 | 4.6 |
